Substitutions are numbered along the chain they refer to. In names and notes the source's numbering stands.
T1: TNFR1 (Homo sapiens, UniProt P19438)
T1 chain: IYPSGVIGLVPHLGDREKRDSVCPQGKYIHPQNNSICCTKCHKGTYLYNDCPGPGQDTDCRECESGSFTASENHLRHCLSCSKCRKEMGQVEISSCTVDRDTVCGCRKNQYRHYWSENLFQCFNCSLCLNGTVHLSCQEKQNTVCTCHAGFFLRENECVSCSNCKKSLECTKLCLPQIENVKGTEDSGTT

B1: E22T (designed binder)
chain: SMEEEVEKAAKEYEKKKKEAITKHLEKLKAKDKEAAERFLKELEEAAKEYAKDEAKTMSEEEAKRRAKKYKEKVLLSELSEEEQKEIKEAEEKLVRTILKYVEEAAK
B2: E4H (designed binder)
chain: B1 chain with E4H, T22E
B3: K41A (designed binder)
chain: B1 chain with T22E, K41A
B4: Y101F (designed binder)
chain: B1 chain with T22E, Y101F
B5: D32Y (designed binder)
chain: B1 chain with T22E, D32Y
B6: E92H (designed binder)
chain: B1 chain with T22E, E92H
B7: I87F (designed binder)
chain: B1 chain with T22E, I87F
B8: Y50P (designed binder)
chain: B1 chain with T22E, Y50P
B9: Y70E (designed binder)
chain: B1 chain with T22E, Y70E
B10: A55Y (designed binder)
chain: B1 chain with T22E, A55Y
B11: E42A (designed binder)
chain: B1 chain with T22E, E42A
B12: E62Q (designed binder)
chain: B1 chain with T22E, E62Q
B13: K8N (designed binder)
chain: B1 chain with K8N, T22E
B14: E22A (designed binder)
chain: B1 chain with T22A
B15: E4T (designed binder)
chain: B1 chain with E4T, T22E
B16: K31W (designed binder)
chain: B1 chain with T22E, K31W
B17: H24Y (designed binder)
chain: B1 chain with T22E, H24Y
B18: K23L (designed binder)
chain: B1 chain with T22E, K23L
B19: A106S (designed binder)
chain: B1 chain with T22E, A106S
B20: K52E (designed binder)
chain: B1 chain with T22E, K52E
B21: Y70K (designed binder)
chain: B1 chain with T22E, Y70K
B22: E62C (designed binder)
chain: B1 chain with T22E, E62C
B23: I21L (designed binder)
chain: B1 chain with I21L, T22E
B24: A36V (designed binder)
chain: B1 chain with T22E, A36V
B25: Q84G (designed binder)
chain: B1 chain with T22E, Q84G
B26: K41P (designed binder)
chain: B1 chain with T22E, K41P
B27: K15H (designed binder)
chain: B1 chain with K15H, T22E
B28: E86Y (designed binder)
chain: B1 chain with T22E, E86Y
B29: E37M (designed binder)
chain: B1 chain with T22E, E37M
B30: A10T (designed binder)
chain: B1 chain with A10T, T22E
B31: E62W (designed binder)
chain: B1 chain with T22E, E62W
B32: E78H (designed binder)
chain: B1 chain with T22E, E78H
B33: E78I (designed binder)
chain: B1 chain with T22E, E78I
B34: L28I (designed binder)
chain: B1 chain with T22E, L28I
B35: L43D (designed binder)
chain: B1 chain with T22E, L43D
B36: I21W (designed binder)
chain: B1 chain with I21W, T22E
B37: A90P (designed binder)
chain: B1 chain with T22E, A90P
B38: E3C (designed binder)
chain: B1 chain with E3C, T22E
B39: E81V (designed binder)
chain: B1 chain with T22E, E81V
B40: K17F (designed binder)
chain: B1 chain with K17F, T22E
B41: L40A (designed binder)
chain: B1 chain with T22E, L40A
B42: S59T (designed binder)
chain: B1 chain with T22E, S59T
B43: S77A (designed binder)
chain: B1 chain with T22E, S77A

Target: T1, TNFR1
Assay: yeast display SC50

apparent Kd (screen) [nM] | Binder
0.539 | B1
1.4 | B2
0.869 | B3
0.49 | B4
13.8 | B5
3 | B6
5.84 | B7
4.39 | B8
0.718 | B9
10.4 | B10
10.4 | B11
0.79 | B12
0.718 | B13
0.539 | B14
0.446 | B15
0.79 | B16
1.69 | B17
0.79 | B18
0.79 | B19
0.446 | B20
0.446 | B21
2.73 | B22

apparent Kd (screen) [nM] | Binder
1.16 | B23
0.446 | B24
12.5 | B25
2.48 | B26
0.49 | B27
1.4 | B28
0.718 | B29
0.446 | B30
0.956 | B31
0.49 | B32
0.49 | B33
1.86 | B34
6.43 | B35
0.49 | B36
26.9 | B37
7.07 | B38
0.446 | B39
0.446 | B40
0.446 | B41
1.54 | B42
0.49 | B43
